Laboratory results from paper PMC6144793 (Nucleic Acids Research, 2018).

Target: the molecule itself
Experiment: SEC-MALS

B1: His6-tagged Hvo_0019 (enzyme, Haloferax volcanii)
chain: MSVRDEFDAWAADGRDKGMEDRHWHTAKHALARMPVEEGDTVVDLGTGSGYALRALRDTKGIGRGFGLDGSPEMVQNARAYTDTDDLSFLVGDFDDLPFDDDSVDHVWSMEAFYYAADPHHTLEEIARILKPGGTFYCAVNYYEENVHSHEWQEHISIDMTRWSHAEYREAFRDAGLHVAEQDSIADLDIDIPAATEFPTDDWETREAMVERYRTFGTLLTVGVAP
binding result: binds
